US20260167693A1

Molecular target: human CD19 (human) (UniProt P15391)
Assay: cell-based or functional assay

Sequence of human CD19 (human) (P15391 20-556): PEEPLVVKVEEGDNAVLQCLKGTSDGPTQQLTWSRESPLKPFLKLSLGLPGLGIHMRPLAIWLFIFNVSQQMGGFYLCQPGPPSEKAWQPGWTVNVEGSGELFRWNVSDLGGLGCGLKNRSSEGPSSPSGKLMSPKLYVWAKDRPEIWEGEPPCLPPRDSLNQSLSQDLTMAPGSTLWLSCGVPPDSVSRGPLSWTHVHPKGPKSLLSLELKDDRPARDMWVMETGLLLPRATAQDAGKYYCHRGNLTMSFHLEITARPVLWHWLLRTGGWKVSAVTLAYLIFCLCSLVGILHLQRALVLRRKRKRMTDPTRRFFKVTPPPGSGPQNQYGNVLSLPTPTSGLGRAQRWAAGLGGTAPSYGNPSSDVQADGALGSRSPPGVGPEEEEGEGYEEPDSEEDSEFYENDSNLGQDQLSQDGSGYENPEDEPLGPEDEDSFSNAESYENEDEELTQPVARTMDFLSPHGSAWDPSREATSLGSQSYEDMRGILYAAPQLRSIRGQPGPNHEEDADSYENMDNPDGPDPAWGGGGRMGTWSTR

- NFAT-GFP (%) after overnight co-culture with RAJI cells: 30.2%
Substance: CD8SP-CD19BU12(vL-vH)-MYC-BBz-PAC
